Assay results reported in publication PMC9385276.
Like-named read-outs stand apart in the source and are kept apart here.

Legend:
[1] = target: T1, PDGF-BB (human, UniProt P01127 82-190); experiment: ELISA
[2] = target: T1, PDGF-BB; experiment: ELISA; remark: listed apart in the source

T1 sequence (P01127 82-190): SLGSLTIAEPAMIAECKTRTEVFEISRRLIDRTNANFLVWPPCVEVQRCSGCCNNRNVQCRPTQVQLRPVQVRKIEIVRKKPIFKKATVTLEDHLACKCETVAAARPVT

B1: Aa11 (structured_DNA)
DNA: CAGGCTACGGCACGTAGAGCATCACCATGATCCTGAAAAAATAATACGACTCACTATAGGGCCGTAGCCTG
binding result [1]: binds

B2: Aa10 (structured_DNA)
DNA: CAGGCTACGGCACGTAGAGCATCACCATGATCCTGAAAAAATAATACGACTCACTATAGGGTCCGTAGCCTG
binding result [2]: binds
